The target in data set [1] is T1, Hrp48-RRM12 (Drosophila melanogaster, UniProt P48809 1-173).
T1 sequence: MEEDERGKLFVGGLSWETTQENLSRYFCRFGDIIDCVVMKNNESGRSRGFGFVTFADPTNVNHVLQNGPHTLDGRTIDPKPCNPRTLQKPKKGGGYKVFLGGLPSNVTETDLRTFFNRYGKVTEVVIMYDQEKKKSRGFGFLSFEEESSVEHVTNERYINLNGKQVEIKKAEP
Briefly: ITC.

Data set [2] addresses T2, Sxl-dRBD3;Unr-CSD12 (Drosophila melanogaster;Drosophila …, UniProt P19339;B7Z0E2 123-294;186-337, |).
T2 sequence 1: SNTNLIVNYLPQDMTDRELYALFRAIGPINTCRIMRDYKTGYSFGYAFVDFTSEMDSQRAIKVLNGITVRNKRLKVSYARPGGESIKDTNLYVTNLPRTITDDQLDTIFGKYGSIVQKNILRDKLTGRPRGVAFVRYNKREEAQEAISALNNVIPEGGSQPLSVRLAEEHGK
T2 sequence 2: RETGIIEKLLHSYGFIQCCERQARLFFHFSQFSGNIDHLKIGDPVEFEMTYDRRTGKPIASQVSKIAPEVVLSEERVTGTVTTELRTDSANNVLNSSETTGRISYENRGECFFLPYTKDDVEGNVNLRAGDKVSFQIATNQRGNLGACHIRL
Briefly: SEC-MALS.

For data set [3], the target named is T3, Hrp48-RRM12;Sxl-dRBD3;Unr-CSD12 (Drosophila melanogaster;Drosophila …, UniProt P48809;P19339;B7Z0E2 1-173;123-294;186-337, ||).
T3 sequence 1: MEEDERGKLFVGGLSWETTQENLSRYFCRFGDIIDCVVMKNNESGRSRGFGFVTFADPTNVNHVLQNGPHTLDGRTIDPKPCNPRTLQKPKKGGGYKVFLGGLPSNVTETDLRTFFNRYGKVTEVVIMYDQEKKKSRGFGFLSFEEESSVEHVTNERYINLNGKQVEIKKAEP
T3 sequence 2: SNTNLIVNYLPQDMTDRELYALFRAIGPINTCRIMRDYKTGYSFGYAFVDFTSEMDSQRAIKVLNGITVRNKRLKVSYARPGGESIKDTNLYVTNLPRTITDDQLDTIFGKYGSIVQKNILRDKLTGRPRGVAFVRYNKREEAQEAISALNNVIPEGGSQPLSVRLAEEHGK
T3 sequence 3: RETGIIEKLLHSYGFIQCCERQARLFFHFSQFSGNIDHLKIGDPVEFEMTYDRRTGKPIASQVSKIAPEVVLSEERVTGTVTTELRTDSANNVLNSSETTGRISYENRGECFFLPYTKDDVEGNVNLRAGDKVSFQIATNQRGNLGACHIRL
Briefly: SEC-MALS. Background: SEC sorts molecules by how far they enter the pores of the column.

For data set [4], the target named is T4, Hrp48-RRM1 (Drosophila melanogaster, UniProt P48809 1-88).
T4 sequence: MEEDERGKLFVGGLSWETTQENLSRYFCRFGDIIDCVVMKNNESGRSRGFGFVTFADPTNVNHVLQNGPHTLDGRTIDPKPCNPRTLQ
Briefly: NMR.

Data set [5] has as its target T5, Hrp48-RRM2 (Drosophila melanogaster, UniProt P48809 89-173).
T5 sequence: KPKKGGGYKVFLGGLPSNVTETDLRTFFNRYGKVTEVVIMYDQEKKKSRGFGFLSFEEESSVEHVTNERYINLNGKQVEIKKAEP
Put plainly: NMR.

In data set [6] the target is T3, Hrp48-RRM12;Sxl-dRBD3;Unr-CSD12. Put plainly: SEC-MALS. This is another data set of the same source.
Data set [7] concerns the target T1, Hrp48-RRM12. Briefly: ITC. This is another data set of the same source.
Data set [8] has as its target T2, Sxl-dRBD3;Unr-CSD12. Put plainly: SEC.
The target of data set [9] is T1, Hrp48-RRM12. Put plainly: NMR.
Data set [10] deals with T1, Hrp48-RRM12. Put plainly: NMR. This is another data set of the same source.
The target of data set [11] is T4, Hrp48-RRM1. Put plainly: ITC. A general note: Isothermal titration calorimetry measures the heat released or taken up as one component is titrated into another.
For data set [12], the target named is T5, Hrp48-RRM2. Briefly: NMR. The source holds these as a separate data set.
For data set [13], the target named is T1, Hrp48-RRM12. Briefly: EMSA. (In general: Mobility shift assays separate free from complexed probe on a gel.)
In data set [14] the target is T4, Hrp48-RRM1. Put plainly: ITC. The source holds these as a separate data set.
The data set “SEC-MALS” deals with the molecule itself. Briefly: SEC-MALS.

Read-outs that look alike come from different tables or passages of the source.

Twelve molecules from publication doi:10.1101/2024.03.26.586676 (bioRxiv, 2024) can be followed below.

By Kd is commonly meant the free concentration of one partner at which half of the binding sites on the other are occupied at equilibrium, for simple one-to-one binding. Read a low Kd as higher affinity. What is called stoichiometry N is the number of molecules, sites or subunits per partner or assembly.

As to UAGGAUUAAG (ssRNA) [10-mer-WT], the Kd with Hrp48-RRM12 [1] came to 17.3 ± 2.9 nM.
Turning to UUUUUUUGAGCACGUGAACCUAGGAUUAAG (ssRNA) [WT-30-mer], the binding result (with Sxl-dRBD3;Unr-CSD12 [2]; in data set [3]) was “binds” each time.
Turning to AUUAAG (ssRNA) [6-mer-3], the binding result with Hrp48-RRM1 [4] and in the data set with Hrp48-RRM2 [5] was “binds” in each case.
For the molecule UUUUUUUGAGCACGUGAAGGUAGGAUUAAG (ssRNA) [GG-30-mer], the binding result (in [6]; with Hrp48-RRM12 [7]; in the data set with Sxl-dRBD3;Unr-CSD12 [8]) was “binds” in each case.
For the molecule UAAG (ssRNA) [4-mer-6], the binding result with Hrp48-RRM12 [9] is on record as “binds”.
Take UAGG (ssRNA) [4-mer-3]: the binding result with Hrp48-RRM12 [10] was “binds”.
For the molecule AACCUA (ssRNA) [6-mer-1], the Kd with Hrp48-RRM1 [11] turned out to be 1300 nM. In addition, the binding result in the data set with Hrp48-RRM2 [12] was “no binding”.
Consider UUUUUUUGAGCACGUGAAGGUAGGAUUAAG (ssRNA) [GG-30-mer-Cy5], for which the binding result with Hrp48-RRM12 [13] was “binds”.
In the data set with Hrp48-RRM1 [11], UAGGAU (ssRNA) [6-mer-2] had a Kd of 8700 nM.
Take AAGAAC (ssRNA) [6-mer-4]: the binding result in the data set with Hrp48-RRM1 [14] and with Hrp48-RRM2 [5] was “binds” in each case.

B1: Hrp48-RRM2 (residues 89-173) (domain or fragment, Drosophila melanogaster, UniProt P48809 89-173, looked up)
chain: KPKKGGGYKVFLGGLPSNVTETDLRTFFNRYGKVTEVVIMYDQEKKKSRGFGFLSFEEESSVEHVTNERYINLNGKQVEIKKAEP
Turning to B1, the “stoichiometry N” value in “SEC-MALS” was determined as 4.
As to UAGGUUAAG (ssRNA) [9-mer (P-element site)], the Kd with Hrp48-RRM12 [1] stood at 14.8 ± 3.7 nM.
